The values below come from publication PMC4670963.

Assay [1] has as its target Flag-tagged Sufu (UniProt Q9UMX1). The assay can be described thus: co-IP; NIH3T3 cells transfected with HA-Gli1 or HA-Gli2 and Flag-Sufu, without exogenous Hck; immunoprecipitated with anti-Flag; western blot with anti-HA or anti-Flag; bands quantified with ImageJ against the input.
Assay [2] has the same target. The assay can be described thus: co-IP; As a2 but with co-expressed exogenous HA-Hck or kinase-inactive Hck-K269E; immunoprecipitated with anti-Flag; western blot with anti-HA, anti-Flag or 4G10.

Chain of UniProt Q9UMX1 (Q9UMX1 whole entry): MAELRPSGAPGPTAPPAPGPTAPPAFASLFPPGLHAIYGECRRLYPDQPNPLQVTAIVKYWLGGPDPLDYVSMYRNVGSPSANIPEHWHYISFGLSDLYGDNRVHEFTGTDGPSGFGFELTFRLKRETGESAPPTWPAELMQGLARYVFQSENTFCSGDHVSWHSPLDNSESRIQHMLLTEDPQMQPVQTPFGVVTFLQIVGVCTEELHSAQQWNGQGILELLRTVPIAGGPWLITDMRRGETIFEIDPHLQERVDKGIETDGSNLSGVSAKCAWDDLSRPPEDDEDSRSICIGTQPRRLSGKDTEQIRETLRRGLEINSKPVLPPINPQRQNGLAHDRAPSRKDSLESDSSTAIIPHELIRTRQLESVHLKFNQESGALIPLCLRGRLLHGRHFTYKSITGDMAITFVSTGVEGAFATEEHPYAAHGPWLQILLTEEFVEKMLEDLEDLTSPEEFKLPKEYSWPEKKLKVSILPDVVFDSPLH

Consider “HA-Gli1 (from UniProt P08151 1-1106) (natural protein)”, for which the percent of Gli1 co-immunoprecipitated with Sufu (against the input) in assay [1] turned out to be 30%. Also, in assay [2], the percent of Gli1 co-precipitated with Sufu (against the input), with co-expressed HA-Hck stood at 5%.
